Five molecules from patent US20190127480A1 (Regeneron, published 2019) can be followed below.

Assay [1] deals with T1, human CD3 on CD3-expressing cells (Jurkat, human T cells) (human, UniProt P07766 23-207; P04234 22-171).
T1 construct: On cells CD3 stands within the T cell receptor complex (also gamma and zeta chains); also called human CD3 expressing Jurkat cells
In words: FACS on Jurkat cells. In a few lines: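 Jurkat (human CD3), cynomolgus T or PSMA-expressing cells (2×10⁵/well) incubated 30 min at 4° C with serially diluted bispecific antibodies, then 30 min with PE anti-human Fcγ F(ab′)₂. Single-cell gated flow cytometry; EC₅₀ from 4-parameter non-linear regression.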

The target in assay [2] is T2, human PSMA on PSMA-expressing cells (human, UniProt Q04609 1-750).
T2 construct: Cell line is named under assay or readout in each row; also called B16F10.9/hPSMA; B16F10.9/PSMA
T2 sequence (Q04609 whole entry): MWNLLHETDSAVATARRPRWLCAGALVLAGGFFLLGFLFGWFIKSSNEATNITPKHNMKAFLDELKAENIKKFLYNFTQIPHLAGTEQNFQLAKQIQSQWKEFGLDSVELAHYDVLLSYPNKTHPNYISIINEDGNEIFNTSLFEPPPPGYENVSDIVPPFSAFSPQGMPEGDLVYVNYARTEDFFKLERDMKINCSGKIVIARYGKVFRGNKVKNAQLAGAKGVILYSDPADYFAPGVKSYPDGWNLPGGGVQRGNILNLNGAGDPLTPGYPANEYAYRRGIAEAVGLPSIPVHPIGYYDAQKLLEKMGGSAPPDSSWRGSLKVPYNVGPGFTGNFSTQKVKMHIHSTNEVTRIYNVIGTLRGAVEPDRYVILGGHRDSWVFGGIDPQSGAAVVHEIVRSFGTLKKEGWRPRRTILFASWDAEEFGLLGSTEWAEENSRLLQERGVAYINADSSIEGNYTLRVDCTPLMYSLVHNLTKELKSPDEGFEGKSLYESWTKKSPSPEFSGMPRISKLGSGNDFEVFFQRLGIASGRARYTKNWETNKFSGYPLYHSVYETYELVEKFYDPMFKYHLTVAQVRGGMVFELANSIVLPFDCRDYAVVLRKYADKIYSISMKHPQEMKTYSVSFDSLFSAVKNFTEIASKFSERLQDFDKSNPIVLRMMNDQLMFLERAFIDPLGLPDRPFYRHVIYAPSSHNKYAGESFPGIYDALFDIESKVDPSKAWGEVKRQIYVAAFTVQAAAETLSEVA
In words: FACS on 22RV1 cells. How it is done: Briefly, 2×10⁵ cells/well of human CD3-expressing Jurkat, cynomolgus T, or human PSMA-specific expressing cells were incubated with a serial dilution of bispecific antibodies for 30 min at 4° C. After incubation, cells were washed and a goat F(ab′)₂ anti-human Fcγ PE labeled secondary (Jackson Immunolabs) was added to the cells for an additional 30 min. Next, cells were washed, re-suspended in cold PBS+1% BSA and analyzed via flow cytometry on a BD FACS Canto II.
For FACS analysis, cells were gated by forward scatter height vs. forward scatter area for single events selection, followed by side and forward scatters. The EC₅₀ for cell binding titration was determined using Prism software. Values were calculated using 4-parameter non-linear regression analysis.

The target in assay [3] is T3, cynomolgus monkey CD3 expressed on monkey T-cells (PBMCs) (cynomolgus monkey, UniProt Q95LI5 22-198; Q95LI8 22-171).
T3 construct: whole, on cells; Native CD3 on monkey T cells; gamma and zeta chains are also part of CD3 on cells; also called monkey PBMCs; mfPBMC
T3 sequence (Q95LI5 22-198, chain 1 of 2): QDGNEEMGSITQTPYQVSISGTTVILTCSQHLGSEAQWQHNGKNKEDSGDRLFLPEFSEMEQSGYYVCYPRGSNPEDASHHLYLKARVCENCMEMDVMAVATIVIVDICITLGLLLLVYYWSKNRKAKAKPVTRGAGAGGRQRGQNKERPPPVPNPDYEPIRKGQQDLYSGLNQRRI
T3 sequence (Q95LI8 22-171, chain 2 of 2): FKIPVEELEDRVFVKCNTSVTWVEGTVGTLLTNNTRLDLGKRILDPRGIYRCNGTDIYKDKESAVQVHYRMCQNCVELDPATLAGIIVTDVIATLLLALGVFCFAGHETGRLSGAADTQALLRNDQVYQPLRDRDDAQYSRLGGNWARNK
In words: FACS titration on monkey PBMCs, gated on CD2+CD4+ T cells. How it is done: FACS data was acquired using the following protocol: Cells at 2×10⁵ per well were incubated with serially diluted antibodies for 30 min on ice. Post incubation, cells were washed and secondary antibodies were added and incubated for an additional 30 minutes. After incubation, cells were washed, re-suspended in cold PBS containing 1% BSA and analyzed by flow cytometry. CD4+ monkey T cells were gated by side and forward scatters, and on the CD2+CD4+CD20− population. The EC₅₀s for cell binding titration were calculated using a 4-parameter non-linear regression analysis in GraphPad Prism.

The target in assay [4] is human CD3 expressed on cells (Jurkat cells; human T-cells of PBMC) (human, UniProt P09693 23-182; P20963 22-164). In words: cell-based or functional assay.
Chain of human CD3 expressed on cells (Jurkat cells; human T-cells of PBMC) (chain, as listed by the source, chain 1 of 4): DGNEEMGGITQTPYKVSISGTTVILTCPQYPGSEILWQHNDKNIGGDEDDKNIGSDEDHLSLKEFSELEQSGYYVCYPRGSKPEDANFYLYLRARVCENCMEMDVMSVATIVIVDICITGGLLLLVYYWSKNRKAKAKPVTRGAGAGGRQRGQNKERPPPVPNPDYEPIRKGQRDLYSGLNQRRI
Chain of human CD3 expressed on cells (Jurkat cells; human T-cells of PBMC) (chain, as listed by the source, chain 2 of 4): as the sequence (Q95LI8 22-171, chain 2 of 2) above, with V5I, K15N, V20I, T32S, N33D, N34I, A64T, N74S, L83V, R141H counted along it
Chain of human CD3 expressed on cells (Jurkat cells; human T-cells of PBMC) (P09693 23-182, chain 3 of 4): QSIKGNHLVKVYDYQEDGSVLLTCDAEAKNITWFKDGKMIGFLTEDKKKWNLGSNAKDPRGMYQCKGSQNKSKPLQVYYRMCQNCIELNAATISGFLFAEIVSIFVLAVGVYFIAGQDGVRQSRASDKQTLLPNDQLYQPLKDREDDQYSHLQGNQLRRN
Chain of human CD3 expressed on cells (Jurkat cells; human T-cells of PBMC) (P20963 22-164, chain 4 of 4): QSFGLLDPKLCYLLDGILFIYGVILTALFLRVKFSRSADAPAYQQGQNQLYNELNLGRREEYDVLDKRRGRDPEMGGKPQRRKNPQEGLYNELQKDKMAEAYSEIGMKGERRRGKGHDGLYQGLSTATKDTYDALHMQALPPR
The target of assay [5] is T3, cynomolgus monkey CD3 expressed on …. In words: cell-based or functional assay.
The target in assay [6] is T1, human CD3 on CD3-expressing cells …. In words: FACS titration of Jurkat cells.
Assay [7] concerns the target T4, cynomolgus CD3 on cynomolgus T cells (cynomolgus, UniProt Q95LI5 22-198; Q95LI8 22-171).
T4 construct: whole, on cells; also called Cyno T-cells; monkey T-cells
In words: FACS titration of cynomolgus T cells.

T1 sequence (P07766 23-207 limits assumed, chain 1 of 2): as the sequence (chain, as listed by the source, chain 1 of 4) above
T1 sequence (P04234 22-171 limits assumed, chain 2 of 2): as the sequence (Q95LI8 22-171, chain 2 of 2) above, with V5I, K15N, V20I, T32S, N33D, N34I, A64T, N74S, L83V, R141H counted along it
T4 sequence (Q95LI5 22-198, form in doubt, chain 1 of 2): as the sequence (Q95LI5 22-198, chain 1 of 2) above
T4 sequence (Q95LI8 22-171, form in doubt, chain 2 of 2): as the sequence (Q95LI8 22-171, chain 2 of 2) above

B1: BSPSMA/CD3-001 (bispecific antibody, IgG4, V domains shown)
VH 1: QVQLVESGGGVVQPGRSLRLSCAASGFTFITYGMHWVRQAPGKGLEWVAIIYYDESNKYYADSVKGRFTISRDISKNTLYLQMNGLRAEDTAVYYCARAPRVAVEEDYSYYYGMDVWGQGTTVTVSS
VH 2: EVQLVESGGGLVQPGRSLRLSCVASGFTFADFTMHWVRQAPGKGLEWVSGISWNSNSIDYADSVKGRFTISRDNAKKSLFLQMSSLRAEDTALYYCVKDRSGYSRFYYGMDVWGQGTTVTVSS
VL: EIVMTQSPATLSVSPGERAILSCRASQNINSNLAWYQQKPGQAPRLLIYGASTRATGVPARFSGSGSGTEFTLTIRSLQSEDFAVYYCQQYYNWPITFGHGTRLEIK
notes: modified (chimeric) IgG4 Fc domain as in US20140243504A1; also called PSMA-VH-3465 x CD3-VH-A, CD3-VL-A
Broadly, the EC50 is the concentration at which the effect is half-maximal. For B1, the values for the EC50 in assay [1] and in assay [2] were 39.1 nM and 78.5 nM, respectively.

B2: H2M3547N (antibody, mouse IgG2, V domains shown)
VH: EAQLVESGGGLVQPGRSLRLSCTTSGFTFDDYTMHWVRQAPGKGLEWISDISWNGGTKGYADSVKGRFTISRDNAKNSLYLQMDSLRGEDTALYYCVKDKSGYGHFYFGLDVWGQGTTVTVSS
VL: DIQMTQSPSSLTASVGDRVTFTCRASQSISRHLSWYQQKPGKAPKLLIYAASSLESGVPSRFSGSGSGTDFTLTISSLHPEDFATYYCQQSYSNPPITFGQGTRLEIK
notes: H2M: human variable regions, mouse IgG2 Fc
In turn, B2 gave an EC50 in assay [3] of 0.112 nM. Moreover, the “U937 Cytotoxicity Human T-cells” value in assay [4] was found to be 31.7 pM.

B3: H2M3563N (antibody, mouse IgG2, V domains shown)
VH: EVHLVESGGGLVQPGRSLRLSCAASGFTFDDYTMHWVRQAPGKGLEWVSDISWNSGSIGYADSVKGRFTVSRDNAKNSLYLQMNSLRGEDTALYYCAKDMSGYGHYGKYGMDVWGQGTTVTVSS
VL: DIQMTQSPSSLSASVGDRVTITCRASQSIRSYLNWYQQKPGKVPKLLIYAASSLQSGVPSRFSGSGSGTDFTLTINSLQPDDFATYYCQQTYSNPPITFGQGTRLEIK
notes: as for B2
The molecule B3 returned an EC50 in assay [3] of 0.165 nM. In assay [4], the “U937 Cytotoxicity Human T-cells” value amounted to 40.5 pM.

B4: H1H2712N (antibody, human IgG1, V domains shown)
VH: EVQLVESGGGLVQPGGSLRLSCAATGFTFDDFTMHWVRQAPGKGLEWVSGISWNSGSIGYVDSVKGRFTISRDNAKNSLYLQMNSLRAEDTALYYCAKDNSGYGYYYYGMDVWGQGTTVTVSS
VL: EIVMTQSPATLSVSPGERATLSCRASHSVSRNSAWYQQKPGQAPRLLIYGASTRATGIPARFSGSGSGTEFTLTISSLQSEDFAIYYCQQYNNWPLTFGGGTKVEIK
notes: H1H: human IgG1 Fc
In assay [3], B4 returned an EC50 of 2.29 nM. In assay [5], the “EC50 [M] mfPBMC Proliferation” value is 2.72e-12 M.

B5: CD3-VH-P (antibody, V domains shown)
VH: EVQLVESGGGLVQPGRSLRLSCVASGFTFDDYSMHWVRQAPGKGLEWVSGISWNSGSKDYADSVKGRFTISRDNAKNSLYLQMNSLRAEDTALYYCAKYGSGYGKFYHYGLDVWGQGTTVTVSS
VL: DIQMTQSPSSLSASVGDSVTITCRASQSINNYLNWYQQKPGKAPKLLIYTASSLLSGVPSRFSGSGSGTDFTLTISGLHPEDFATYFCQQSFSTPPITFGQGTRLDIK
notes: also called CD3 antibody designated CD3-VH-P
Consider B5, for which the EC50 in assay [6] and in assay [7] was 1 to 40 nM in each case.
